Measurements: patent KR20200144536A (dated 2020)

Tests used:
hTie2-Fc (R&D Systems) = target: T1, hTie2-Fc (R&D Systems) (human, UniProt Q02763 23-745); test: Complex ELISA: coated Tie2-Fc (4 ug/ml), 0.25 ug/ml Ang2 and 2 ug/ml 10D6, anti-mouse IgG-HRP, OD450
T1 construct: Bought fusion protein; neither the Tie2 range nor the linker is stated; also called hTie-2/Fc 융합 단백질; not shown: Fc of human IgG1

[1] = target: Mutant Ang2 A449 (알라닌 치환), FLAG-tagged (human) (UniProt O15123); test: ELISA, coated antibody (1000 nM), 250 ng FLAG-tagged mutant Ang2, anti-FLAG-HRP, OD450
[2] = target: Mutant Ang2 D448 (알라닌 치환), FLAG-tagged (human) (UniProt O15123); test: as above
[3] = target: Mutant Ang2 F469 (알라닌 치환), FLAG-tagged (human) (UniProt O15123); test: as above
[4] = target: Mutant Ang2 I434 (알라닌 치환), FLAG-tagged (human) (UniProt O15123); test: as above
[5] = target: Mutant Ang2 K468 (알라닌 치환), FLAG-tagged (human) (UniProt O15123); test: as above
[6] = target: Mutant Ang2 N421 (알라닌 치환), FLAG-tagged (human) (UniProt O15123); test: as above
[7] = target: Mutant Ang2 N467 (알라닌 치환), FLAG-tagged (human) (UniProt O15123); test: as above
[8] = target: Mutant Ang2 P419 (알라닌 치환), FLAG-tagged (human) (UniProt O15123); test: as above
[9] = target: Mutant Ang2 P452 (알라닌 치환), FLAG-tagged (human) (UniProt O15123); test: as above
[10] = target: Mutant Ang2 Q418 (알라닌 치환), FLAG-tagged (human) (UniProt O15123); test: as above
[11] = target: Mutant Ang2 S417 (알라닌 치환), FLAG-tagged (human) (UniProt O15123); test: as above
[12] = target: Mutant Ang2 Y460 (알라닌 치환), FLAG-tagged (human) (UniProt O15123); test: as above
[13] = target: T2, 재조합 hAng-2 (C-His, R&D Systems) (human, UniProt O15123 19-496); test: SPR, BIAcore T100; hAng-2 (C-His) captured on an anti-His CM5 chip, antibody flowed from 100 nM in 2-fold dilutions
T2 construct: Bought protein; also called 인간 Ang-2 단백질; not shown: C-terminal His tag
T2 sequence: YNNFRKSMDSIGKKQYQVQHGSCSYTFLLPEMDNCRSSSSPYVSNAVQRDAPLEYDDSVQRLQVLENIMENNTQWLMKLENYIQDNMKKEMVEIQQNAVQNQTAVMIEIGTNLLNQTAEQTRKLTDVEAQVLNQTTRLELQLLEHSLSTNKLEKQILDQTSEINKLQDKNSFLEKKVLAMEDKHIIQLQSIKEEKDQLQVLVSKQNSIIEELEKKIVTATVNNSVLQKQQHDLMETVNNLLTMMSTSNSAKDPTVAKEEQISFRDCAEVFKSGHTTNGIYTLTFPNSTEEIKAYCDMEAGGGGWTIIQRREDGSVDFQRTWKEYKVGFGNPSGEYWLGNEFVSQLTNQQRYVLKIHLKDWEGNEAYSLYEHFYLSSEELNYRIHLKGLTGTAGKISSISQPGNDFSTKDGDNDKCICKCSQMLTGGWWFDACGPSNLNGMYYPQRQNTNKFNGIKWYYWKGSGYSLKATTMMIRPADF

T1 sequence (Q02763 23-745 limits assumed): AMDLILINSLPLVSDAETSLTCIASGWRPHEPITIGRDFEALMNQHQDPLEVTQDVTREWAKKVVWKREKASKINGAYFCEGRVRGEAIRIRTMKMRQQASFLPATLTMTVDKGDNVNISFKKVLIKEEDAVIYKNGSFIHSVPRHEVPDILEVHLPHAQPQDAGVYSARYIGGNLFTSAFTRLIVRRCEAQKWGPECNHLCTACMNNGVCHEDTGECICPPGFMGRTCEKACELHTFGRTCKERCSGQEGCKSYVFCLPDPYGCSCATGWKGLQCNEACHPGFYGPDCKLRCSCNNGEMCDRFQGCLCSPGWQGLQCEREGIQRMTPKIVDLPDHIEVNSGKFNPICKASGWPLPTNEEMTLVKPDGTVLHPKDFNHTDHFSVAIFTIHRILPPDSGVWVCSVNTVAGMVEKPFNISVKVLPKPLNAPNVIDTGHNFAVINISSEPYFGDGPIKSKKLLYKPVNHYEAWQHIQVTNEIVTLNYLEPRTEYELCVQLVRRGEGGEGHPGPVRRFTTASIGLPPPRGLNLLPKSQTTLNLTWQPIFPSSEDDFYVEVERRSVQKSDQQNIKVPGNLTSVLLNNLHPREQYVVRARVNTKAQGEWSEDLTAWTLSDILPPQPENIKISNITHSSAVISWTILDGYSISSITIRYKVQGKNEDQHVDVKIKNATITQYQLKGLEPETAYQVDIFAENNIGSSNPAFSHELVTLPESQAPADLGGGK

B1: Ang2 단백질(R&D systems) (ligand)
chain: YNNFRKSMDSIGKKQYQVQHGSCSYTFLLPEMDNCRSSSSPYVSNAVQRDAPLEYDDSVQRLQVLENIMENNTQWLMKLENYIQDNMKKEMVEIQQNAVQNQTAVMIEIGTNLLNQTAEQTRKLTDVEAQVLNQTTRLELQLLEHSLSTNKLEKQILDQTSEINKLQDKNSFLEKKVLAMEDKHIIQLQSIKEEKDQLQVLVSKQNSIIEELEKKIVTATVNNSVLQKQQHDLMETVNNLLTMMSTSNSAKDPTVAKEEQISFRDCAEVFKSGHTTNGIYTLTFPNSTEEIKAYCDMEAGGGGWTIIQRREDGSVDFQRTWKEYKVGFGNPSGEYWLGNEFVSQLTNQQRYVLKIHLKDWEGNEAYSLYEHFYLSSEELNYRIHLKGLTGTAGKISSISQPGNDFSTKDGDNDKCICKCSQMLTGGWWFDACGPSNLNGMYYPQRQNTNKFNGIKWYYWKGSGYSLKATTMMIRPADF
binding result (hTie2-Fc (R&D Systems)): binds

B2: SAIT-ANG2-AB-m10D6 (antibody, V domains shown)
VH: DVQLQESGPGLVKPSQSLSLTCTVTGYSITSDYAWNWIRQFPGNKLEWMGYINYSGNTDYNPSLKSRSSITRDTSKNQFFLQLNSVTTGDTATYYCARGNFEGAMDYWGQGTSVTVSS
VL: SIVMTQTPKFLLVSAGDRVTITCKASQSVSNDVAWYQQKPGQSPKLLIYYASNRYPGVPDRFTGSGYGTDFTFTISTVQAEDLAVYFCQQDYSSPWTFGGGTKLEIK
notes: Mouse monoclonal antibody from a hybridoma (KCLRF-BP-00295), purified on protein G; also called 10D6 항체; 10D6 anti-Ang2 항체
binding to Mutant Ang2 relative to native Ang2 (%) [1]: 97.9% | binding to Mutant Ang2 relative to native Ang2 (%) [2]: 105% | binding to Mutant Ang2 relative to native Ang2 (%) [3]: 109% | binding to Mutant Ang2 relative to native Ang2 (%) [4]: 109% | binding to Mutant Ang2 relative to native Ang2 (%) [5]: 110% | binding to Mutant Ang2 relative to native Ang2 (%) [6]: 109% | binding to Mutant Ang2 relative to native Ang2 (%) [7]: 107% | binding to Mutant Ang2 relative to native Ang2 (%) [8]: 41.1% | binding to Mutant Ang2 relative to native Ang2 (%) [9]: 102% | binding to Mutant Ang2 relative to native Ang2 (%) [10]: 38.9% | binding to Mutant Ang2 relative to native Ang2 (%) [11]: 101% | binding to Mutant Ang2 relative to native Ang2 (%) [12]: 103% | Kd [13]: 8 nM
